8 substances from patent US5726017 can be followed below.

Series [1] deals with GST-gag (HIV-1 gag polyprotein, strain LAI) (HIV-1 (LAI)) (UniProt P03348). Briefly: filter. As to conditions: for Kd: 5 mM MgCl2, 37 C.
For series [2], the system named is glutathione S-transferase (GST). Kind of series: filter. The conditions noted are these: GST alone, low affinity.
Series [3] has as its target GST-gag (HIV-1 gag polyprotein, strain LAI) (HIV-1 (LAI)) (UniProt P03348). Kind of series: competition. The conditions noted are these: 1 nM gag, scale: fold excess unlabeled Psi for 50% competition.
Setting [4] is: 50 mM Tris pH 7.5, 140 mM KCl, 5 mM NaCl.

Consider “GGGAAAAGCGAAUCAUACACAAGANNNNNNNNNNNNNNNNNNNNNNNNNNNNNNNNNNNNNNNNNNNNNNNNNNGCUCCGCCAGAGACCAACCGAGAA [SELEX B round 0 RNA pool]”, for which the equilibrium dissociation constant (Kd) (commonly the free concentration of one partner at which half of the binding sites on the other are occupied at equilibrium, for simple one-to-one binding) in series [1] (setting [4]) is 1000 nM.

With random RNA, the Kd in series [2] was > 10000 nM.

In the case of “GGGAAAAGCGAAUCAUACACAAGANNNNNNNNNNNNNNNNNNNNNNNNNNNNNNNNNNNNNNNNNNNNNNNNNNGCUCCGCCAGAGACCAACCGAGAA [SELEX B round 8 RNA pool]”, in series [1] (setting [4]), the Kd turned out to be 1.1 nM. Further, in series [3] (150 pM labeled pool), the fold excess of unlabeled Psi for 50% competition turned out to be 630.

With “GGGAGACAAGAAUAAACGCUCAANNNNNNNNNNNNNNNNNNNNNNNNNNNNNNNNNNNNNNNNNNNNNNNNNNUUCGACAGGAGGCUCACAACAGGC [SELEX A round 10 RNA pool]”, the Kd in series [1] (50 mM Tris pH 7.5, 200 mM KOAc, 10000-fold tRNA) is 1.5 nM.

In turn, “HIV-1 Psi RNA (456 nt, transcribed from XhoI-linearized pBsPVR789)” returned a binding signal (% bound at 10 nM gag) in series [1] (13.4% at 0.1 nM, 14.7% without gag, positive control) of 87. Further, the Kd in series [1] (SELEX A experiment, 50 mM Tris pH 7.5, 200 mM KOAc) was 1.1 nM; in series [1] (SELEX B experiment, 50 mM Tris pH 7.5, 140 mM KCl, 5 mM NaCl), 5.2 nM. Moreover, in series [3] (150 pM labeled Psi), the fold excess of unlabeled Psi for 50% competition worked out at 20.

Turning to “GGGAAAAGCGAAUCAUACACAAGANNNNNNNNNNNNNNNNNNNNNNNNNNNNNNNNNNNNNNNNNNNNNNNNNNGCUCCGCCAGAGACCAACCGAGAA [SELEX B round 4 RNA pool]”, in series [1] (setting [4]), the Kd came out at 8.5 nM. For the same substance, the fold excess of unlabeled Psi for 50% competition in series [3] (150 pM labeled pool) was 74.

“GGGAGACAAGAAUAAACGCUCAANNNNNNNNNNNNNNNNNNNNNNNNNNNNNNNNNNNNNNNNNNNNNNNNNNUUCGACAGGAGGCUCACAACAGGC [SELEX A round 0 RNA pool]” displayed a binding signal (% bound at 10 nM gag) in series [1] (4.0% at 0.1 nM, 6.0% without gag, negative control) of 3.5.

Substance “GGGAGACAAGAAUAAACGCUCAAUCUCGUAUCAGCACACCGGUACAAAGAGGAUGCAAAUNCGCCUGUGACUUCGACAGGAGGCUCACAACAGGC [SW10.12]” registered a binding signal (% bound at 10 nM gag) in series [1] (0.6% at 0.1 nM, 0.6% without gag) of 11.2.
